According to the supplement of paper PMC5949888:

System: Saccharomyces cerevisiae PS128 hsf1 delta, HSF1(1-493) fusion
Assay: growth estimate (transactivation domain function in HSF1 fusion, heat-shock survival) (a.u. (slope of normalised read count over time)); higher = stronger growth at 37°C, i.e. more transactivation activity
Conditions: library: design library
Method in brief: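 The growth estimate is the slope, from a robust linear fit over time, of read counts scaled to sample totals and starting count. These counts came from Illumina MiSeq sequencing of PCR-amplified inserts, run as six barcoded replicates of one experiment. The inserts encoded designed transactivation-domain oligos fused to yeast HSF1 (amino acids 1–493) in an hsf1-deleted strain, replica-plated on –trp 5-FOA plates and incubated at 30°C or 37°C for 0, 2, 4, 6 and 8 days.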

Sequence	growth estimate
AADDIWEELLSEDL	2.1
ADDDEFSLWDSML	1.96
ADLYSILWSDVY	-0.203
AELSWIIELLEKDG	-0.248
AFDLDMLGDFDLDMLG	1.88
AFDYDFLFGNDFA	10.5
AFNDLLDLDFILSN	0.948
AFPDTQDDFLKWWRSEEAQ	-0.0486
ALDESWDYIFETTE	0.813
ALSSHGFSVDTSALLDLFSP	0.065
AMDDVYNYLFDD	2.28
AQNGEIAQLWDFN	-0.205
DADESWDYIFETTE	-0.164
DADLDMLGDFDLDMLG	0.604
DALSWIIELLEKDG	< -0.25
DEASWIIELLEKDG	-0.123
DELAWIIELLEKDG	0.883
DELGWIIELLEKDG	-0.244
DELKWIIELLEKDG	-0.0445
DELPWIIELLEKDG	-0.193
DELRWIIELLEKDG	0.0232
DELSAIIELLEKDG	< -0.25
DELSGIIELLEKDG	-0.238
DELSKIIELLEKDG	< -0.25

Sequence	growth estimate
DELSPIIELLEKDG	-0.237
DELSRIIELLEKDG	< -0.25
DELSWAIELLEKDG	< -0.25
DELSWGIELLEKDG	< -0.25
DELSWIAELLEKDG	0.851
DELSWIGELLEKDG	-0.125
DELSWIIALLEKDG	-0.104
DELSWIIEALEKDG	0.0037
DELSWIIEGLEKDG	< -0.25
DELSWIIEKLEKDG	< -0.25
DELSWIIELLAKDG	-0.221
DELSWIIELLEADG	1.64
DELSWIIELLEGDG	2.77
DELSWIIELLEKAG	< -0.25
DELSWIIELLEKDA	2.02
DELSWIIELLEKDG	1.7
DELSWIIELLEKDK	0.564
DELSWIIELLEKDP	3.41
DELSWIIELLEKDR	0.276
DELSWIIELLEKGG	0.213
DELSWIIELLEKKG	< -0.25
DELSWIIELLEKPG	0.0373
DELSWIIELLEKRG	< -0.25
DELSWIIELLEPDG	7.58

Sequence	growth estimate
DELSWIIELLERDG	1.05
DELSWIIELLGKDG	-0.173
DELSWIIELLKKDG	-0.239
DELSWIIELLPKDG	-0.225
DELSWIIELLRKDG	< -0.25
DELSWIIELPEKDG	-0.237
DELSWIIELREKDG	-0.239
DELSWIIERLEKDG	< -0.25
DELSWIIGLLEKDG	-0.0196
DELSWIIKLLEKDG	-0.233
DELSWIIRLLEKDG	< -0.25
DELSWIKELLEKDG	0.278
DELSWIPELLEKDG	-0.091
DELSWIRELLEKDG	1.03
DELSWKIELLEKDG	< -0.25
DELSWPIELLEKDG	0.046
DELSWRIELLEKDG	-0.216
DEPSWIIELLEKDG	-0.161
DERSWIIELLEKDG	< -0.25
DFALDMLGDFDLDMLG	3.21
DFDADMLGDFDLDMLG	6.93
DFDGDMLGDFDLDMLG	1.92
DFDKDMLGDFDLDMLG	0.964
DFDLAMLGDFDLDMLG	9.96

Sequence	growth estimate
DFDLDALGDFDLDMLG	5.01
DFDLDGLGDFDLDMLG	2.75
DFDLDKLGDFDLDMLG	1.4
DFDLDMAGDFDLDMLG	11.3
DFDLDMGGDFDLDMLG	8.13
DFDLDMKGDFDLDMLG	0.067
DFDLDMLADFDLDMLG	0.343
DFDLDMLGAFDLDMLG	5.97
DFDLDMLGDADLDMLG	5.13
DFDLDMLGDFDADMLG	21.1
DFDLDMLGDFDGDMLG	4.69
DFDLDMLGDFDKDMLG	0.54
DFDLDMLGDFDLAMLG	-0.0527
DFDLDMLGDFDLDALG	0.195
DFDLDMLGDFDLDGLG	2.79
DFDLDMLGDFDLDKLG	-0.158
DFDLDMLGDFDLDMAG	30.2
DFDLDMLGDFDLDMGG	16.5
DFDLDMLGDFDLDMKG	3.28
DFDLDMLGDFDLDMLA	1.83
DFDLDMLGDFDLDMLG	7.72
DFDLDMLGDFDLDMLK	1.65
DFDLDMLGDFDLDMLP	22.2
DFDLDMLGDFDLDMLR	6.97

Sequence	growth estimate
DFDLDMLGDFDLDMPG	17.2
DFDLDMLGDFDLDMRG	6.95
DFDLDMLGDFDLDPLG	9.65
DFDLDMLGDFDLDRLG	0.414
DFDLDMLGDFDLGMLG	0.517
DFDLDMLGDFDLKMLG	-0.116
DFDLDMLGDFDLPMLG	1.24
DFDLDMLGDFDLRMLG	0.112
DFDLDMLGDFDPDMLG	10.6
DFDLDMLGDFDRDMLG	0.584
DFDLDMLGDFKLDMLG	0.503
DFDLDMLGDFPLDMLG	1.65
DFDLDMLGDFRLDMLG	0.535
DFDLDMLGDGDLDMLG	-0.147
DFDLDMLGDKDLDMLG	-0.188
DFDLDMLGDPDLDMLG	10.1
DFDLDMLGGFDLDMLG	2.09
DFDLDMLGKFDLDMLG	1.77
DFDLDMLGRFDLDMLG	1.8
DFDLDMLKDFDLDMLG	2.58
DFDLDMLPDFDLDMLG	0.485
DFDLDMLRDFDLDMLG	11.1
DFDLDMPGDFDLDMLG	6.81
DFDLDMRGDFDLDMLG	1.6

Sequence	growth estimate
DFDLDPLGDFDLDMLG	2.12
DFDLDRLGDFDLDMLG	4.07
DFDLGMLGDFDLDMLG	12.4
DFDLKMLGDFDLDMLG	3.04
DFDLPMLGDFDLDMLG	5.28
DFDLRMLGDFDLDMLG	6.25
DFDPDMLGDFDLDMLG	7.23
DFDRDMLGDFDLDMLG	1.31
DFGLDMLGDFDLDMLG	2.44
DFKLDMLGDFDLDMLG	5.13
DFPLDMLGDFDLDMLG	3.12
DFRLDMLGDFDLDMLG	10.1
DGDESWDYIFETTE	-0.219
DGDLDMLGDFDLDMLG	0.418
DGLSWIIELLEKDG	-0.173
DKDESWDYIFETTE	-0.235
DKDLDMLGDFDLDMLG	-0.127
DKLSWIIELLEKDG	< -0.25
DLAESWDYIFETTE	0.371
DLDASWDYIFETTE	0.507
DLDEAWDYIFETTE	1.45
DLDEGWDYIFETTE	0.787
DLDEKWDYIFETTE	< -0.25
DLDEPWDYIFETTE	1.58

Sequence	growth estimate
DLDESADYIFETTE	-0.127
DLDESGDYIFETTE	-0.129
DLDESRDYIFETTE	-0.153
DLDESWAYIFETTE	0.283
DLDESWDAIFETTE	< -0.25
DLDESWDGIFETTE	0.5
DLDESWDKIFETTE	-0.06
DLDESWDRIFETTE	< -0.25
DLDESWDYAFETTE	< -0.25
DLDESWDYIAETTE	-0.174
DLDESWDYIFATTE	1.5
DLDESWDYIFEATE	2.47
DLDESWDYIFEGTE	1.27
DLDESWDYIFEKTE	-0.233
DLDESWDYIFEPTE	1.97
DLDESWDYIFERTE	0.415
DLDESWDYIFETAE	1.08
DLDESWDYIFETGE	1.44
DLDESWDYIFETPE	0.951
DLDESWDYIFETRE	0.311
DLDESWDYIFETTA	0.992
DLDESWDYIFETTE	1.92
DLDESWDYIFETTG	2.74
DLDESWDYIFETTK	-0.0269

Sequence	growth estimate
DLDESWDYIFETTP	3.58
DLDESWDYIFETTR	1.15
DLDESWDYIFGTTE	0.717
DLDESWDYIFKTTE	0.154
DLDESWDYIFPTTE	0.0438
DLDESWDYIFRTTE	0.833
DLDESWDYIGETTE	-0.243
DLDESWDYIPETTE	< -0.25
DLDESWDYKFETTE	-0.178
DLDESWDYRFETTE	-0.247
DLDESWGYIFETTE	0.0335
DLDESWKYIFETTE	-0.0397
DLDESWPYIFETTE	-0.161
DLDESWRYIFETTE	0.0438
DLDGSWDYIFETTE	0.41
DLDKSWDYIFETTE	-0.196
DLDPSWDYIFETTE	0.39
DLDRSWDYIFETTE	-0.214
DLGESWDYIFETTE	0.355
DLPESWDYIFETTE	-0.108
DLRESWDYIFETTE	-0.213
DPDESWDYIFETTE	0.0829
DPDLDMLGDFDLDMLG	4.23
DPLSWIIELLEKDG	-0.102
